From publication PMC2700067, “Intracellular interactions between APOBEC3G, RNA, and HIV-1 Gag: APOBEC3G multimerization is dependent on its association with RNA” (Retrovirology, 2009)

Columns and labels:
Experiment in all cases: split reporter (BiFC, NanoBiT); BiFC quantified by flow cytometry: 293T cells co-transfected with 0.25 μg of each BiFC construct and mRFP1, harvested about 14 h after transfection and fixed; percent of mRFP+ cells that are YFP+, and mean intensity of YFP+ cells
Conditions in all cases: partners not purified
[1] = biological target: T1, H65R-CY (human, UniProt Q9HC16 1-384, H65R)
T1 construct: APOBEC3G (A3G), human, CD1 mutant H65R; as A3G-CY with the mutation; also called CD1 mutant H65R of A3G-CY; source: HeLa and 293T cells, transfected, in living cells; 293T, transfected, in lysate (co-IP); not shown: CY (YFP residues 173-238), C-terminal, kept

[2] = biological target: T2, F70A-CY (human, UniProt Q9HC16 1-384, F70A)
T2 construct: APOBEC3G (A3G), human, CD1 mutant F70A; as A3G-CY with the mutation; also called CD1 mutant F70A of A3G-CY; source: HeLa and 293T cells, transfected, in living cells; 293T, transfected, in lysate (co-IP); not shown: CY (YFP residues 173-238), C-terminal, kept

[3] = biological target: T3, Y91A-CY (human, UniProt Q9HC16 1-384, Y91A)
T3 construct: APOBEC3G (A3G), human, CD1 mutant Y91A; as A3G-CY with the mutation; also called CD1 mutant Y91A of A3G-CY; source: HeLa and 293T cells, transfected, in living cells; not shown: CY (YFP residues 173-238), C-terminal, kept

B1: H65R-NY (natural protein, human, UniProt Q9HC16 1-384, looked up)
chain: MKPHFRNTVERMYRDTFSYNFYNRPILSRRNTVWLCYEVKTKGPSRPPLDAKIFRGQVYSELKYRPEMRFFHWFSKWRKLHRDQEYEVTWYISWSPCTKCTRDMATFLAEDPKVTLTIFVARLYYFWDPDYQEALRSLCQKRDGPRATMKIMNYDEFQHCWSKFVYSQRELFEPWNNLPKYYILLHIMLGEILRHSMDPPTFTFNFNNEPWVRGRHETYLCYEVERMHNDTWVLLNQRRGFLCNQAPHKHGFLEGRHAELCFLDVIPFWKLDLDQDYRVTCFTSWSPCFSCAQEMAKFISKNKHVSLCIFTARIYDDQGRCQEGLRTLAEAGAKISIMTYSEFKHCWDTFVDHQGCPFQPWDGLDEHSQDLSGRLRAILQNQEN
notes: APOBEC3G (A3G), human, CD1 mutant H65R; as A3G-NY with the mutation; also called CD1 mutant H65R of A3G-NY; source: HeLa and 293T cells, transfected, in living cells; not shown: NY (YFP residues 1-172), C-terminal, kept
- percent of mRFP+ cells that are YFP+ (BiFC) [1]: < 0.1%

B2: F70A-NY (natural protein, human, UniProt Q9HC16 1-384, looked up)
chain: MKPHFRNTVERMYRDTFSYNFYNRPILSRRNTVWLCYEVKTKGPSRPPLDAKIFRGQVYSELKYHPEMRAFHWFSKWRKLHRDQEYEVTWYISWSPCTKCTRDMATFLAEDPKVTLTIFVARLYYFWDPDYQEALRSLCQKRDGPRATMKIMNYDEFQHCWSKFVYSQRELFEPWNNLPKYYILLHIMLGEILRHSMDPPTFTFNFNNEPWVRGRHETYLCYEVERMHNDTWVLLNQRRGFLCNQAPHKHGFLEGRHAELCFLDVIPFWKLDLDQDYRVTCFTSWSPCFSCAQEMAKFISKNKHVSLCIFTARIYDDQGRCQEGLRTLAEAGAKISIMTYSEFKHCWDTFVDHQGCPFQPWDGLDEHSQDLSGRLRAILQNQEN
notes: APOBEC3G (A3G), human, CD1 mutant F70A; as A3G-NY with the mutation; also called CD1 mutant F70A of A3G-NY; source: HeLa and 293T cells, transfected, in living cells; not shown: NY (YFP residues 1-172), C-terminal, kept
- percent of mRFP+ cells that are YFP+ (BiFC) [2]: < 0.1%

B3: Y91A-NY (natural protein, human, UniProt Q9HC16 1-384, looked up)
chain: MKPHFRNTVERMYRDTFSYNFYNRPILSRRNTVWLCYEVKTKGPSRPPLDAKIFRGQVYSELKYHPEMRFFHWFSKWRKLHRDQEYEVTWAISWSPCTKCTRDMATFLAEDPKVTLTIFVARLYYFWDPDYQEALRSLCQKRDGPRATMKIMNYDEFQHCWSKFVYSQRELFEPWNNLPKYYILLHIMLGEILRHSMDPPTFTFNFNNEPWVRGRHETYLCYEVERMHNDTWVLLNQRRGFLCNQAPHKHGFLEGRHAELCFLDVIPFWKLDLDQDYRVTCFTSWSPCFSCAQEMAKFISKNKHVSLCIFTARIYDDQGRCQEGLRTLAEAGAKISIMTYSEFKHCWDTFVDHQGCPFQPWDGLDEHSQDLSGRLRAILQNQEN
notes: APOBEC3G (A3G), human, CD1 mutant Y91A; as A3G-NY with the mutation; also called CD1 mutant Y91A of A3G-NY; source: HeLa and 293T cells, transfected, in living cells; not shown: NY (YFP residues 1-172), C-terminal, kept
- percent of mRFP+ cells that are YFP+ (BiFC) [3]: < 0.1%
